B1: g30 2'-F (ssRNA)
RNA: GGGACGCUCACGUACGCUAAAAAUUGCCGGGAUCUGGUGUGGCGACCAUGCGGCGUGCAUUCAGUGCCUGGACGUGCAGU
modifications: 2'-F on all C and U
B2: g5 2'-F (ssRNA)
RNA: GGGACGCUCACGUACGCUAAGCCCAACGAACAUUUUGAGUUUCCAGGCAGCUCAUAGACAUCAGUGCCUGGACGUGCAGU
modifications: 2'-F on all C and U
B3: g20 2'-F (ssRNA)
RNA: GGGACGCUCACGUACGCUAAACGUUGUGGCGAACUUCGGCCCGAACGGGAGUAACUGCAUCAGUGCCUGGACGUGCAGU
modifications: 2'-F on all C and U
B4: g8 2'-F (ssRNA)
RNA: GGGACGCUCACGUACGCUAAGGGCACUUAAAACCAGACCGUGAUUUGCGGUUGGUCUCGCUCAGUGCCUGGACGUGCAGU
modifications: 2'-F on all C and U
B5: g16 2'-F (ssRNA)
RNA: GGGACGCUCACGUACGCUAACCGCUACCGGGUGCAACGGGUAGACUGUAACCAGGUGAUAUCAGUGCCUGGACGUGCAGU
modifications: 2'-F on all C and U
B6: g32 2'-F (ssRNA)
RNA: GGGACGCUCACGUACGCUAAACAAGACCGGGAUGGGGGUUGGUCACACACAAAGACUGAAUCAGUGCCUGGACGUGCAGU
modifications: 2'-F on all C and U
B7: g4 2'-F (ssRNA)
RNA: GGGACGCUCACGUACGCUAAUACCGUGAUUCGGGGUGGUAUCCGGUGGACAUCCAGGUCGUCAGUGCCUGGACGUGCAGU
modifications: 2'-F on all C and U
B8: g22 2'-F (ssRNA)
RNA: GGGACGCUCACGUACGCUAAGCGUGUUUCUUCAUUUCGACGCUGGCCAACGGAAAUGCAAUCAGUGCCUGGACGUGCAGU
modifications: 2'-F on all C and U
B9: g3 2'-F (ssRNA)
RNA: GGGACGCUCACGUACGCUAAGGGCGAAACUGUCGUGACACGGUUUGACAUGCCGGCCUUAUCAGUGCCUGGACGUGCAGU
modifications: 2'-F on all C and U
B10: g18 2'-F (ssRNA)
RNA: GGGACGCUCACGUACGCUAAGGCACCCUAUAGGAUUCAGCCCCUAACCCGGUGUUGUGAAUCAGUGCCUGGACGUGCAGU
modifications: 2'-F on all C and U
B11: g17 2'-F (ssRNA)
RNA: GGGACGCUCACGUACGCUAAAGUGAUGGCCGGCUGGAGAAACGGGCCACUCGAUCCAGGUCAGUGCCUGGACGUGCAGU
modifications: 2'-F on all C and U
B12: g12 2'-F (ssRNA)
RNA: GGGACGCUCACGUACGCUAACGCGGCCAUCCGGCGUUUGGAACGGGAUGUACACCUGACAUCAGUGCCUGGACGUGCAGU
modifications: 2'-F on all C and U
B13: g33 2'-F (ssRNA)
RNA: GGGACGCUCACGUACGCUAAACUUUUGGCGAUCUCCGGCCGGAUACGGGAGAACGAGGUAUCAGUGCCUGGACGUGCAGU
modifications: 2'-F on all C and U
B14: g13 2'-F (ssRNA)
RNA: GGGACGCUCACGUACGCUAAUCACUCGGACAGCCGGAGCGAAACGGGCUGUGUAAGACUGUCAGUGCCUGGACGUGCAGU
modifications: 2'-F on all C and U
B15: g11 2'-F (ssRNA)
RNA: GGGACGCUCACGUACGCUAAGUUUAGGUGGCAUCGACCUUCAUGAAACGGGUGCACAGGCUCAGUGCCUGGACGUGCAGU
modifications: 2'-F on all C and U
B16: g7 2'-F (ssRNA)
RNA: GGGACGCUCACGUACGCUAACUUGAAGUCAAGGGUAGAGUGACCAUGCAGCUCGUAGACAUCAGUGCCUGGACGUGCAGU
modifications: 2'-F on all C and U
B17: g14 2'-F (ssRNA)
RNA: GGGACGCUCACGUACGCUAAUCAUCGGGACAUCGGAUGGAACGGGUGUCAAGAAGCGUGUUCAGUGCCUGGACGUGCAGU
modifications: 2'-F on all C and U
B18: g6 2'-F (ssRNA)
RNA: GGGACGCUCACGUACGCUAAUCCAGGUGUGGCGAGCCACUGUAAGAGUCGCCGUGAGGAUUCAGUGCCUGGACGUGCAGU
modifications: 2'-F on all C and U
B19: g31 2'-F (ssRNA)
RNA: GGGACGCUCACGUACGCUAAAGAGUCUAUGCCGUGAGUGAGGGUGGCGCCUCGACUGCCAUCAGUGCCUGGACGUGCAGU
modifications: 2'-F on all C and U
B20: g28 2'-F (ssRNA)
RNA: GGGACGCUCACGUACGCUAACCUGGGGGUUCCGCAGGAAUCGGGAACUAGAUUGGUGGUCUCAGUGCCUGGACGUGCAGU
modifications: 2'-F on all C and U
B21: g35 2'-F (ssRNA)
RNA: GGGACGCUCACGUACGCUAAGAUUUGUGUGAUACCCGACACUCUAACGGGGUAGCAGGGCUCAGUGCCUGGACGUGCAGU
modifications: 2'-F on all C and U
B22: g26 2'-F (ssRNA)
RNA: GGGACGCUCACGUACGCUAAGCUCCACCAGGUGUAGCUAGCCUGUAGACAUCAGUAGCAUCAGUGCCUGGACGUGCAGU
modifications: 2'-F on all C and U
B23: g19 2'-F (ssRNA)
RNA: GGGACGCUCACGUACGCUAAGUAGCCGUGAUUGGGUUGGCUGCCCACAAUUAUCCAGGACUCAGUGCCUGGACGUGCAGU
modifications: 2'-F on all C and U
B24: g10 2'-F (ssRNA)
RNA: GGGACGCUCACGUACGCUAAACACAGCUCUGAUGGUCGUGAUUAGGUUGACCACCUACCUUCAGUGCCUGGACGUGCAGU
modifications: 2'-F on all C and U
B25: g21 2'-F (ssRNA)
RNA: GGGACGCUCACGUACGCUAACCUUGGUGUCAUCCGACCAAAUUAGAACGGGAUGAGGAAGUCAGUGCCUGGACGUGCAGU
modifications: 2'-F on all C and U
B26: g15 2'-F (ssRNA)
RNA: GGGACGCUCACGUACGCUAAGACGCGGGCCACCGGCUAGCGACGGGUGGUAAAGGGCUUGUCAGUGCCUGGACGUGCAGU
modifications: 2'-F on all C and U
B27: g34 2'-F (ssRNA)
RNA: GGGACGCUCACGUACGCUAAUUUGGUGAAUUCCGACCAUUUUGCAAACGGGAUACGGGACUCAGUGCCUGGACGUGCAGU
modifications: 2'-F on all C and U
B28: g2 2'-F (ssRNA)
RNA: GGGACGCUCACGUACGCUAAACCCUGGCGAUCUCCGGCCGGAUACGGGAGAACGAGGUACUCAGUGCCUGGACGUGCAGU
modifications: 2'-F on all C and U
B29: g9 2'-F (ssRNA)
RNA: GGGACGCUCACGUACGCUAAGAUGUCUCAAUUGGUCGUGAUUGUGCUGACCACACGAACCUCAGUGCCUGGACGUGCAGU
modifications: 2'-F on all C and U
B30: g23 2'-F (ssRNA)
RNA: GGGACGCUCACGUACGCUAAAUGGGAGUGCGCCUCGGCUCUAACGGAGGUAUGCACGUCAUCAGUGCCUGGACGUGCAGU
modifications: 2'-F on all C and U
B31: g27 2'-F (ssRNA)
RNA: GGGACGCUCACGUACGCUAACCUAUGCAGACCGACAUCCGGGUAUACGGGAUGAUGCGACUCAGUGCCUGGACGUGCAGU
modifications: 2'-F on all C and U
B32: g37 2'-F (ssRNA)
RNA: GGGACGCUCACGUACGCUAAGGUUUGCUCCGACCGACUAAAGGGAGCCUCUGUCACGAGUUCAGUGCCUGGACGUGCAGU
modifications: 2'-F on all C and U
B33: g24 2'-F (ssRNA)
RNA: GGGACGCUCACGUACGCUAAGAGUUGUCGCACAGCGACUCGAAAAUAAUCUGUCCGACACUCAGUGCCUGGACGUGCAGU
modifications: 2'-F on all C and U
B34: g1 2'-F (ssRNA)
RNA: GGGACGCUCACGUACGCUAAACACACUGAGAGUUUGACCAGCUAUUAAAUGGGUCGUGACUCAGUGCCUGGACGUGCAGU
modifications: 2'-F on all C and U
B35: g36 2'-F (ssRNA)
RNA: GGGACGCUCACGUACGCUAACUUGAUUGGUCGCAACCGGACAAGGACGGGUUGAUGCAGUUCAGUGCCUGGACGUGCAGU
modifications: 2'-F on all C and U
B36: g11 (ssRNA)
RNA: B15 RNA
B37: g10 (ssRNA)
RNA: B24 RNA

molecular target: T1, rec-cMet (Recombinant Human HGF R/c-MET/Fc Chimera) (Homo sapiens, UniProt P08581;P08581 SEQ:1-283,SEQ:1-625); test: SPR; rec-cMet 60 nM; settings: tags: C-terminal HIEGRMD linker, human IgG Fc (100-330), 6xHis; R&D Systems; chain copies: 2 (inferred, Fc chimera)
Procedure: (§1) Using these truncated RNA aptamers, the binding ability thereof to the rec-cMet was examined. The binding ability was analyzed using BIACORE (registered trademark) X (GE Healthcare) in accordance with its instructions for use, with the concentration of the rec-cMet being set to 175 nmol/L. Also, the binding ability of each of the RNA aptamers g1 and g1-trA was examined in the same manner. As a comparative example, the 40N was used, and the binding ability thereof was examined in the same manner.
(§2) The binding ability of each of the RNA aptamers to the rec-cMet was examined in the same manner as in Example 5, except that the fluorinated RNA aptamers were used. The concentration of the rec-cMet was set to 60 nmol/L. With the time point at which the introduction of the rec-cMet to the chip was started being 0 seconds, introduction of a buffer was started 60 seconds later. As a comparative example, the same negative control as in Example 6 was used.

T1 sequence (P08581 25-307, stated change not applied, chain 1 of 2): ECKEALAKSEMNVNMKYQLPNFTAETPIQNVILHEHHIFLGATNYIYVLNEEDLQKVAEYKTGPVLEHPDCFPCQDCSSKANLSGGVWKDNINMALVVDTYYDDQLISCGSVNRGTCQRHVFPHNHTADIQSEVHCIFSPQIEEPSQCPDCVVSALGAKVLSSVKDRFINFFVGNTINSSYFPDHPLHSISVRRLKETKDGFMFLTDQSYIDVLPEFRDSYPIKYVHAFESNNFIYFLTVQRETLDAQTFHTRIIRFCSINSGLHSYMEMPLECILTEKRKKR
T1 sequence (P08581 308-932, stated change not applied, chain 2 of 2): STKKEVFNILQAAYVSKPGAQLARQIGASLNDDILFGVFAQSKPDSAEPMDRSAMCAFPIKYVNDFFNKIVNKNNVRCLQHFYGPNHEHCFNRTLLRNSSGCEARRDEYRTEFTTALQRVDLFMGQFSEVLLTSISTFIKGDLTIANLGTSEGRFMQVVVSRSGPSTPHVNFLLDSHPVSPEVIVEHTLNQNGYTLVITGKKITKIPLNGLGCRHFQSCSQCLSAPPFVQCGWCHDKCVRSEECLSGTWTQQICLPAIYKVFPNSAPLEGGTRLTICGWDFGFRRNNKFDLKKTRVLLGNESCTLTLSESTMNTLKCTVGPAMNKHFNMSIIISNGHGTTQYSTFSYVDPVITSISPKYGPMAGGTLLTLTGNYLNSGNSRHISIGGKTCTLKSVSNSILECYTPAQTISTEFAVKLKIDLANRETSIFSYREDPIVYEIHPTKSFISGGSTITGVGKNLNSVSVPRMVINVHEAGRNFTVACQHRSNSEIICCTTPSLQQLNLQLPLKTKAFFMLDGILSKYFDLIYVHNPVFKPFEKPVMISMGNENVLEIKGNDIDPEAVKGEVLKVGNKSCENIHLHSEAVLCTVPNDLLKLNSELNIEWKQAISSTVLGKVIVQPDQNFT

Binding result, binds:
B1
B2
B3
B4
B5
B6
B7
B8
B9
B10
B11
B12
B13
B14
B15
B16
B17
B18
B19
B20
B21
B22
B23
B24
B25
B26
B27
B28
B29
B30
B31
B32
B33
B34
B35

molecular target: T1, rec-cMet (Recombinant Human HGF …); test: SPR; rec-cMet 100 nM; settings: tags: C-terminal HIEGRMD linker, human IgG Fc (100-330), 6xHis; R&D Systems; chain copies: 2 (inferred, Fc chimera)
Procedure: as §1
as §2, with “the above” for “the fluorinated”, “to 100” for “to 60”, “later.” for “later. As a comparative example, the same negative control as in Example 6 was used.”

Binding result, binds:
B36
B37
